How the values were obtained:
[1] = biological target: TF:VIIa complex (1:1 complex of rTF and factor VIIa on a phospholipid surface) (UniProt P08709)
[2] = biological target: T1, recombinant human tissue factor (rTF), membrane-anchored, HPC4-tagged, cytoplasmic domain truncated
T1 chain: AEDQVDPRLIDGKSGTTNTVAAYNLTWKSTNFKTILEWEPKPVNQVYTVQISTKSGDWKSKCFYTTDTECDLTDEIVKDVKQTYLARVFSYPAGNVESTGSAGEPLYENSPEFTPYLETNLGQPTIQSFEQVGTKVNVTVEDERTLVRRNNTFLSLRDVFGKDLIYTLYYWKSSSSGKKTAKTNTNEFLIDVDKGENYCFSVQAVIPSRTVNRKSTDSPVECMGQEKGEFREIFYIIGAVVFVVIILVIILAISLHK

## coagulation factor X
[1]
  Km for factor X activation; TF-Nanodiscs, 10% PS, 90% PC: 0.132 µM
  Km for factor X activation; TF-Nanodiscs, 20% PS, 80% PC: 0.0686 µM
  Km for factor X activation; TF-Nanodiscs, 30% PS, 70% PC: 0.0452 µM
  Km for factor X activation; TF-liposomes, 20% PS, 80% PC: 0.0202 µM
  Km, app for factor X activation; rTF in PCPS vesicles: 0.0202 µM
  Km, app for factor X activation; rTF-PCPS-nanoscale discs: 0.0686 µM

B1: coagulation factor VIIa (protein)
chain: ANAFLEELRPGSLERECKEEQCSFEEAREIFKDAERTKLFWISYSDGDQCASSPCQNGGSCKDQLQSYICFCLPAFEGRNCETHKDDQLICVNENGGCEQYCSDHTGTKRSCRCHEGYSLLADGVSCTPTVEYPCGKIPILEKRNASKPQGRIVGGKVCPKGECPWQVLLLVNGAQLCGGTLINTIWVVSAAHCFDKIKNWRNLIAVLGEHDLSEHDGDEQSRRVAQVIIPSTYVPGTTNHDIALLRLHQPVVLTDHVVPLCLPERTFSERTLAFVRFSLVSGWGQLLDRGATALELMVLNVPRLMTQDCLQQSRKVGDSPNITEYMFCAGYSDGSKDSCKGDSGGPHATHYRGTWYLTGIVSWGQGCATVGHFGVYTRVSQYIEWLQKLMRSEPRPGVLLRAPFP
[2]
  procoagulant activity (plasma clotting) of TF-containing nanoscale discs: the resultant discs exhibit strong procoagulant activity

Reference: patent US20060088524A1 (BOARD OF TRUSTEES OF THE UNIVERSITY OF ILLINOIS, published 2006)
